Measurements taken from the Immune Epitope Database (IEDB).

Columns and labels:
HLA-A*02:01 = assay: IEDB peptide-MHC binding, purified MHC/competitive/radioactivity; filed as Kd, often an IC50 or EC50 that approximates it; ≥ and ≤ were set here for values at or beyond the usual limits of such assays
HLA-A*02:07 = assay: as above
[1] = source organism: Hepatitis B virus
[2] = source organism: Hepatitis B virus adr4
[3] = source organism: Mycobacterium tuberculosis

Row | Sequence | Kd (HLA-A*02:01; source organism: Homo sapiens) [nM] | Kd (HLA-A*02:07; source organism: Homo sapiens) [nM] | also measured
1 | AAPLILSRI | ≥ 30000 | 6640 | 
2 | ALAETSYVKV |  | ≥ 23300 | 
3 | ALDVYNGLL | 96 | 5970 | 
4 | CILESLFRA | 68 | 6480 | 
5 | GMPEGDLVYV |  | 1400 | 
6 | ILKEPVHGV |  |  | Kd (HLA-A*02:07; source organism: HIV-1 M:B_MN): ≥ 30000 nM
7 | KLPQLCTEL |  |  | Kd (HLA-A*02:07; source organism: Human papillomavirus 16): 2660 nM
8 | LLFFWLDRSV |  | ≥ 30000 | 
9 | LLPFVQWFV |  |  | Kd (HLA-A*02:01; [1]): 8.6 nM; Kd (HLA-A*02:07; [1]): 88 nM
10 | LLWKGEGAVV |  |  | Kd (HLA-A*02:01; source organism: HIV-1 M:B_MN): 111 nM; Kd (HLA-A*02:07; source organism: HIV-1 M:B_MN): 4150 nM
11 | LTDAVKVMDL | ≥ 30000 | ≥ 30000 | 
12 | LVPFVQWFV |  |  | Kd (HLA-A*02:07; [2]): 2530 nM
13 | NLDRSNDKV | ≥ 30000 | ≥ 30000 | 
14 | QIPSYKKLI | ≥ 30000 | ≥ 30000 | 
15 | QLDPARDVL |  |  | Kd (HLA-A*02:07; [2]): ≥ 30000 nM
16 | RLPLVLPAV |  |  | Kd (HLA-A*02:01; [3]): 5.2 nM; Kd (HLA-A*02:07; [3]): 8.9 nM
17 | RMPEAAPPV |  | 548 | 
18 | SLDLASLIL | 1610 | 1560 | 
19 | SLDSWWTSV |  |  | Kd (HLA-A*02:01; [1]): 50 nM; Kd (HLA-A*02:07; [1]): 236 nM
20 | TLPSWATEDT | ≥ 30000 | ≥ 30000 | 
21 | WVDLRSLFL |  |  | Kd (HLA-A*02:01; source organism: HIV-1 M:B_MN): 16700 nM; Kd (HLA-A*02:07; source organism: HIV-1 M:B_MN): ≥ 26900 nM
22 | YLDLALMSV |  |  | Kd (HLA-A*02:01; [3]): 5.6 nM; Kd (HLA-A*02:07; [3]): 44 nM
23 | YLQLVFGIEV |  | 1050 | 
24 | YMDDVVLGV |  |  | Kd (HLA-A*02:07; [1]): 92 nM
25 | YTAFTIPSI |  |  | Kd (HLA-A*02:07; source organism: HIV-1 M:B_MN): ≥ 30000 nM
